We go through 3 molecules from patent US20180142032A1 (Sanofi, published 2018).

For one assay, the target named is T1, LAMP1_mL1_hL234_ΔGYQTI (mouse; human).
T1 construct: on cells; also called pXL5668
T1 chain: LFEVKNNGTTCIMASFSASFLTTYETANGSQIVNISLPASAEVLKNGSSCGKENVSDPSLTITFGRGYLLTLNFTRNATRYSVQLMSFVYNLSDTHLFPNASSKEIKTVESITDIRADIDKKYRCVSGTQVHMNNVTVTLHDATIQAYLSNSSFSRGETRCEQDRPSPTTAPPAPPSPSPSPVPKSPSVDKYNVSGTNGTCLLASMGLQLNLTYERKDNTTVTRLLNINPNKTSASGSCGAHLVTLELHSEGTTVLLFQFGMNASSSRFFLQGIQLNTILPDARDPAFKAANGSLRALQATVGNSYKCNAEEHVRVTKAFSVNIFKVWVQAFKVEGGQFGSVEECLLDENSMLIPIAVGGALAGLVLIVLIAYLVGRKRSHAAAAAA
Put plainly: flow cytometry, transfected 293-F cells.

The next assay deals with T2, hLAMP1_ΔGYQTI (human, UniProt P11279 29-412).
T2 construct: also called pXL5626
T2 sequence: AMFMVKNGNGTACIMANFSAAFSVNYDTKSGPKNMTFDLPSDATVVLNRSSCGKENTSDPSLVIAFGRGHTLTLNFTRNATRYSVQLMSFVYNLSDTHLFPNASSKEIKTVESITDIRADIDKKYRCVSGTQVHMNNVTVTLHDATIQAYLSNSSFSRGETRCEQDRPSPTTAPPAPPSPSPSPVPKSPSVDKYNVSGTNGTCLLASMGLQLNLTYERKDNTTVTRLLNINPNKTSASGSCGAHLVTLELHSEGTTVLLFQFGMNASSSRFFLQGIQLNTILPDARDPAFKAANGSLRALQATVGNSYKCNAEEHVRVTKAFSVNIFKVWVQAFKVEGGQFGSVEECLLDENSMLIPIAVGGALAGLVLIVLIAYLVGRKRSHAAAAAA
Put plainly: flow cytometry, transfected 293-F cells. Background: Flow cytometry measures light scatter and fluorescence of single cells or particles in a stream.

In assay [1] the target is T3, mLAMP1_L12_LAMP1_L34::histag (mouse/human hybrid).
T3 construct: mouse LAMP1 (25-189) and human LAMP1 (196-382), His tag; also called Loop1-2: mLAMP1 Loop3-4: hLAMP1
T3 chain: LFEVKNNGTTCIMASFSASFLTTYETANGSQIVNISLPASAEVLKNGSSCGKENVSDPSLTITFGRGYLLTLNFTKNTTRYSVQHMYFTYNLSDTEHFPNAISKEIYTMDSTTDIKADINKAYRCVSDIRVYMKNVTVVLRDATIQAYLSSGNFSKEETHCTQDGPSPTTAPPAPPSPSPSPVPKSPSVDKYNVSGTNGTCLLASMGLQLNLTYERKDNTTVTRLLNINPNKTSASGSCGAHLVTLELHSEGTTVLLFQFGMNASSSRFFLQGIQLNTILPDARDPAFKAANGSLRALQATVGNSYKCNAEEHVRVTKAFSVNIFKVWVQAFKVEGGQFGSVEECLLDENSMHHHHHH
Put plainly: ELISA. (In general: An ELISA detects its analyte on a solid surface through an enzyme-linked reagent.)

Assay [2] concerns the target T4, mLAMP1_L1_LAMP1_L234::histag (mouse/human hybrid).
T4 construct: also called Loop1: mLAMP1 Loop2-4: hLAMP1
T4 chain: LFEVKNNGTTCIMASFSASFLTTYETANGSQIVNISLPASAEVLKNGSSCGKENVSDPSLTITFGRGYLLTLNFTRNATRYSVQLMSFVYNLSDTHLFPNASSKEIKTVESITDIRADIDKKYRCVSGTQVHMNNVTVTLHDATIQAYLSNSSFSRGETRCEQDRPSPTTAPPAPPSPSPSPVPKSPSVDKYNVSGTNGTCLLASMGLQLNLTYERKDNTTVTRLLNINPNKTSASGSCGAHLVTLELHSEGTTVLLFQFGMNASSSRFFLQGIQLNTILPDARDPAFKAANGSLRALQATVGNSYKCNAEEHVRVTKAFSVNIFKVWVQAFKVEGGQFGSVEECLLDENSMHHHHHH
The experiment in a line: ELISA.

For a further assay, the target named is T5, mLAMP1::histag (mouse, UniProt P11438 25-369).
T5 construct: also called mouse LAMP1 (25-369); Mouse LAMP1
T5 sequence: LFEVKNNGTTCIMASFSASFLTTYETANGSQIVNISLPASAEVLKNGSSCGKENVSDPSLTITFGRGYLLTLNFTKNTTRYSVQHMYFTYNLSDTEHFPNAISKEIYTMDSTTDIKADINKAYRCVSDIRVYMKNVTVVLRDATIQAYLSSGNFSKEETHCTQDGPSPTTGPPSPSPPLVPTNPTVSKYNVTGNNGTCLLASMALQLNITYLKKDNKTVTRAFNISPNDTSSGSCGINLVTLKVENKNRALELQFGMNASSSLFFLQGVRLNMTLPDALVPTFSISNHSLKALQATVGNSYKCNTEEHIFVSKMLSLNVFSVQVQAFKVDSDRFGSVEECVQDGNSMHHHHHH
Put plainly: ELISA.

For assay [3], the target named is T6, cynomolgus monkey LAMP1 at the cell surface (cynomolgus monkey, UniProt P11279 29-417 (human entry)).
T6 construct: also called cynoLAMP1; cynomolgus LAMP1
T6 chain: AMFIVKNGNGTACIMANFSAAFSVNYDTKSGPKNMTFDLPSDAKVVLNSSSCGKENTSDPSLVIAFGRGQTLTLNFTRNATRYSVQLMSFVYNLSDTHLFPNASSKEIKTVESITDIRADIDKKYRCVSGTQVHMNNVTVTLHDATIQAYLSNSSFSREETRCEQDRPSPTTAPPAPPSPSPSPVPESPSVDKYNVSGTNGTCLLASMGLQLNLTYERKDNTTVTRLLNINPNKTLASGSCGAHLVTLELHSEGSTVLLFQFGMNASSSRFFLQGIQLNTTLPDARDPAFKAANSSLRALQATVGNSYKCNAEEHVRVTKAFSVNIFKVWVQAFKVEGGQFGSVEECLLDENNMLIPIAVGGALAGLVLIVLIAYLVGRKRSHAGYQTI
The experiment in a line: flow cytometry.

Assay [4] has as its target T7, human LAMP1 at the cell surface (human, UniProt P11279 29-417).
T7 construct: native on tumour cells (PDX, Colo205, SW480, LS174T) or from the cloned CDS NM_005561.3 in HEK293 and HCT116; signal peptide 1-28 left out; also called huLAMP1; full length human LAMP1
T7 sequence: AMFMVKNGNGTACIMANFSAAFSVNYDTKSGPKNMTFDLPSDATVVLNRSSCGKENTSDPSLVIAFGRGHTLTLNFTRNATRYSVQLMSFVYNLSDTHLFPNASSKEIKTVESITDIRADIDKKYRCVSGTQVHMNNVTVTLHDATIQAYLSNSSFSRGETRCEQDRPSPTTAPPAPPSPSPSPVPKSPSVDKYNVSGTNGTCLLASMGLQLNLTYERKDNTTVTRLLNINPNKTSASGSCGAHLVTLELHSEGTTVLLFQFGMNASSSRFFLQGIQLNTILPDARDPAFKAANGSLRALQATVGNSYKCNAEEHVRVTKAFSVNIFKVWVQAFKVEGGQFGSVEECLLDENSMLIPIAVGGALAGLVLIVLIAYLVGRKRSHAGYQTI
The experiment in a line: flow cytometry, HCT116 huLAMP1 clone 8. The protocol:
HCT116 cells were infected by a lentiviral vector allowing stable integration of the human or the cynomolgus LAMP1 CDS in genomic DNA of cells. Individual clones with different densities of human or cynomolgus LAMP1 cell surface localization were derived from a pool of HCT116 infected cells. […] 100 μL/well of goat anti-human IgG conjugated with Alexa488 (Invitrogen; # A11013) was added for 1 h at 4° C. and washed two times with PBS 1% BSA. The antibody binding was evaluated after centrifugation and resuspension of cells in 100 μl fixing solution (paraformaldehyde at 4% in PBS). Samples were read using Galaxy® Flow Cytometry System (Partec). EC50 values were estimated using BIOST@T-SPEED software.

In assay [5] the target is T6, cynomolgus monkey LAMP1 at the cell …. Put plainly: flow cytometry, HEK293 cynoLAMP1 clone 44.
In assay [6] the target is T7, human LAMP1 at the cell surface. The experiment in a line: cell-based or functional assay.
For assay [7] the target is unchanged. Put plainly: flow cytometry, HCT116 huLAMP1 clone 8. The protocol:
100 μL/well of goat anti-human IgG conjugated with Alexa488 (Invitrogen; # A11013) was added for 1 h at 4° C. and washed two times with PBS 1% BSA. The antibody binding was evaluated after centrifugation and resuspension of cells in 100 ul fixing solution (paraformaldehyde at 4% in PBS). Samples were read using Galaxy® Flow Cytometry System (Partec).
The source holds these as a separate data set.

In the next assay the target is T8, LAMP1::histag (human, UniProt P11279 29-382).
T8 construct: extracellular domain without signal peptide, C-terminal 6 His tag, made in HEK293 cells; also called recombinant human LAMP1; human LAMP1 (29-382)
T8 sequence: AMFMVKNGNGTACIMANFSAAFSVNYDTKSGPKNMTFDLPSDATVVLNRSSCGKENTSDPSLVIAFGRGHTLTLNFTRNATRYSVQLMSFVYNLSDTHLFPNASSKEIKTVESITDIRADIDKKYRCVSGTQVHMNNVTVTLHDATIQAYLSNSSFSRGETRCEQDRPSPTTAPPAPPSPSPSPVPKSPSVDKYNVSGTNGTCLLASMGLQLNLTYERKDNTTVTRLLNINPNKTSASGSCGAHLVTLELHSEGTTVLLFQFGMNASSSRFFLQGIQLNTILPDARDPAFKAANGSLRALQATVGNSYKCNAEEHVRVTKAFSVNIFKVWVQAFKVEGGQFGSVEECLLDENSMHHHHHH
Put plainly: ELISA on secreted human LAMP1.

Assay [8] concerns the target T7, human LAMP1 at the cell surface. Put plainly: cell-based or functional assay. This is another data set of the same source.

Like-named read-outs stand apart in the source and are kept apart here.

B1: chMAb3 (antibody, human IgG1, kappa, V domains shown)
VH: QIQLVQSGPELKKPGETVKISCKASGYIFTNYGMNWVKQAPGKGLKWMGWINTYTGESRYADDFKGRFALSLETSASTAYLQINNLENEDMATYFCAREDYYGNSPWFFDVWGAGTTVTVSS
VL: DIQMTQTTSSLSASLGDRVTISCNASQGINKYLNWYQQKPDGTVKLLIYYTSTLHSGVPSRFSGSGSGTDYSLTINNLEPEDIATYYCQQYTKLPFTFGSGTKLEIKR
notes: chimeric, human IgG1, Ckappa
On to B1, for which the binding result (in the assay with LAMP1_mL1_hL234_ΔGYQTI; in [1]; in assay [2]; with mLAMP1::histag) was “no binding” in each case. Moreover, in the assay with hLAMP1_ΔGYQTI, the mean fluorescence amounted to 640.

B2: DM4-SPDB-huMAb1_1 (antibody, human IgG1, kappa)
heavy: not shown
light: DIQMTQSPSSLSASVGDRVTITCKASQDIDRYMAWYQDKPGKAPRLLIHDTSTLQSGVPSRFSGSGSGRDYTLTISNLEPEDFATYYCLQYDNLWTFGGGTKVEIKRTVAAPSVFIFPPSDEQLKSGTASVVCLLNNFYPREAKVQWKVDNALQSGNSQESVTEQDSKDSTYSLSSTLTLSKADYEKHKVYACEVTHQGLSSPVTKSFNRGEC
modifications: DM4 linked through SPDB, average DAR 3.4 per antibody; sites not stated
notes: antibody drug conjugate of huMAb1_1
One may read the EC50 as the concentration giving half of the maximal effect. In the case of B2, the “Ratio of EC50s (cynoLAMP1 against huLAMP1)” value in assay [3] amounted to 2.65. Also, the results for the EC50 in assay [4] and in [5] were 12.7 nM and 33.5 nM, respectively. Besides, the “cytotoxicity IC50, HCT116 huLAMP1 clone 8” value in assay [6] worked out at 0.1 nM.

B3: chMAb1 (antibody, human IgG1, kappa)
heavy: not shown
light: DIQMTQSPPSLSASLGGKVTITCKASQDIDRYMAWYQDKPGKGPRLLIHDTSTLQPGIPSRFSGSGSGRDYSFSISNLEPEDIATYYCLQYDNLWTFGGGTKLEIKRTVAAPSVFIFPPSDEQLKSGTASVVCLLNNFYPREAKVQWKVDNALQSGNSQESVTEQDSKDSTYSLSSTLTLSKADYEKHKVYACEVTHQGLSSPVTKSFNRGEC
notes: chimeric, human IgG1, Ckappa; also called MAb1 (chimeric)
In assay [7], B3 showed an EC50 of 6 nM. Moreover, in the assay with LAMP1::histag, the EC50 came out at 0.09 nM. Moreover, in [1], the binding result is “no binding”. In the assay with mLAMP1::histag, the binding result is recorded as “no binding”. Further, in assay [8], the “ADCC EC50, NK batch 67125626389” value is 0.05 nM; the “ADCC EC50, NK batch 67125903091” value was determined as 0.76 nM; the “ADCC EC50, NK batch 67130127373” value worked out at 0.009 nM; the “ADCC EC50, NK batch 67130494552” value was determined as 0.2 nM. Also, the “ADCC EC50, NK batch 67130496259” value in assay [8] is 0.6 nM.
